Data from patent US20150196651A1 (published 2015).
Square brackets hold non-standard residues; d marks the D form. Ends that are not written are not given here. * marks the point of attachment. 1Nal = N[C@@H](Cc1cccc2ccccc12)C(=O)O; Stearoyl = CCCCCCCCCCCCCCCCCC(=O)*; Palmitoyl = CCCCCCCCCCCCCCCC(=O)*; Myristoyl = CCCCCCCCCCCCCC(=O)*; PheCl2 = dichlorophenylalanine; Lauroyl = CCCCCCCCCCCC(=O)*; PheNO2 = nitrophenylalanine; Decanoyl = CCCCCCCCCC(=O)*; Nle = CCCC[C@H](N)C(=O)O; Octanoyl = CCCCCCCC(=O)*

T1: human PrRP receptor GPR10 (human, UniProt P49683 1-370)
T1 construct: whole, on cells; also called GPR10 human receptor transfected in CHO cells; human GPR10 receptor
T1 sequence (looked up): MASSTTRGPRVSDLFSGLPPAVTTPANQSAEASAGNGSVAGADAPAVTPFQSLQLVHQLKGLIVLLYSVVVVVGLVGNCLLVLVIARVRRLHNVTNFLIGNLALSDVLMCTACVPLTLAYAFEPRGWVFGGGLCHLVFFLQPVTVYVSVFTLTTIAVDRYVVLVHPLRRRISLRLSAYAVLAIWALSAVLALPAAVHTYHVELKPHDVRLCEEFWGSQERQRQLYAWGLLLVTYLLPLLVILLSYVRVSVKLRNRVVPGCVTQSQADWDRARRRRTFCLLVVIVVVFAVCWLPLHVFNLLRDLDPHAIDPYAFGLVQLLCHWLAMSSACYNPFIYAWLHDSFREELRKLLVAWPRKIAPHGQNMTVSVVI

T2: rat PrRP receptor in RC-4B/C cells (rat, UniProt Q64121 1-370)
T2 construct: whole, on cells; endogenous receptor of RC-4B/C cells (ATCC); also called rat receptor; GPR10 receptor expressed in rat hypophyseal cells
T2 sequence (looked up): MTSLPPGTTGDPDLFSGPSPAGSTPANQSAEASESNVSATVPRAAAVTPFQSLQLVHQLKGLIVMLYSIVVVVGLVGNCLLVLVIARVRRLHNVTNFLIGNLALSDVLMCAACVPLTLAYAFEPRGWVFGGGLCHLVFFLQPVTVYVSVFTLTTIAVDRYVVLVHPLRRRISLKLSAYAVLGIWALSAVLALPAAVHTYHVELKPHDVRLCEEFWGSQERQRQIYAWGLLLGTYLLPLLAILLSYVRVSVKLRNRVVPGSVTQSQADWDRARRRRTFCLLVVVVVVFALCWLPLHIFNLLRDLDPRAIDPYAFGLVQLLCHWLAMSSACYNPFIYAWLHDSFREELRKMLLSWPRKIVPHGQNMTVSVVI


Assays:
[1] = target: T1, human PrRP receptor GPR10; assay: competition with 125I-human PrRP31, CHO cells with human GPR10
[2] = target: T2, rat PrRP receptor in RC-4B/C cells; assay: competition with 125I-rat PrRP31, RC-4B/C cells
Summary of the method: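 Incubation 60 min at room temperature; cells solubilized in 0.1 mol/l NaOH and bound radioactivity γ-counted. Run in duplicate, repeated at least three times.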

Binder | % of PrRP31 [1] | Ki [1] | % of PrRP31 [2] | Ki [2]
Stearoyl-SRAHQHS[Nle]ETRTPDINPAWYTGRGIRPVGRF-NH2 [analog no. 9] | 72% | 5.39 nM | 514% | 0.96 nM
Palmitoyl-SRAHQHS[Nle]ETRTPDINPAWYTGRGIRPVGR[1Nal]-NH2 [analog no. 12] | 91% | 4.27 nM | 227% | 2.17 nM
Octanoyl-SRAHQHS[Nle]ETRTPDINPAWYTGRGIRPVGRF-NH2 [analog no. 4] | 254% | 1.53 nM | 503% | 0.98 nM
SRAHQHS[Nle]ETRTPDINPAWYTGRGIRPVGR[PheNO2]-NH2 [analog no. 16] | 81% | 4.8 nM | 2.5% | 19.9 nM
Myristoyl-SRAHQHS[Nle]ETRTPDINPAWYTGRGIRPVGR[PheNO2]-NH2 [analog no. 17] | 245% | 1.59 nM | 250% | 1.97 nM
Myristoyl-SHQRPADTHWYPRG[Nle]FPTIGRITARNGEVSR (scrambled peptide; also called 20 scram) [analog no. 20] | 1.5% | 262 nM | 4.6% | 123 nM
SRAHQHS[Nle]ETRTPDINPAWYTGRGIRPVGR[1Nal]-NH2 [analog no. 10] | 11% | 34.5 nM | 4.8% | 102 nM
Myristoyl-TPDINPAWYASRGIRPVGRF-NH2 (SMILES CCCCCCCCCCCCCC(=O)N[C@H](C(=O)N1CCC[C@H]1C(=O)N[C@@H](CC(=O)O)C(=O)N[C@H](C(=O)N[C@@H](CC(N)=O)C(=O)N1CCC[C@H]1C(=O)N[C@@H](C)C(=O)N[C@@H](Cc1c[nH]c2ccccc12)C(=O)N[C@@H](Cc1ccc(O)cc1)C(=O)N[C@@H](C)C(=O)N[C@@H](CO)C(=O)N[C@@H](CCCNC(=N)N)C(=O)NCC(=O)N[C@H](C(=O)N[C@@H](CCCNC(=N)N)C(=O)N1CCC[C@H]1C(=O)N[C@H](C(=O)NCC(=O)N[C@@H](CCCNC(=N)N)C(=O)N[C@@H](Cc1ccccc1)C(N)=O)C(C)C)[C@@H](C)CC)[C@@H](C)CC)[C@@H](C)O) [analog no. 2] | 90% | 4.33 nM | 1030% | 0.48 nM
Palmitoyl-SRAHQHS[Nle]ETRTPDINPAWYTGRGIRPVGRF-NH2 [analog no. 8] | 128% | 3.03 nM | 967% | 0.51 nM
SRAHQHS[Nle]ETRTPDINPAWYTGRGIRPVGR[PheCl2]-NH2 [analog no. 13] | 171% | 2.27 nM | 128% | 3.84 nM
Decanoyl-SRAHQHS[Nle]ETRTPDINPAWYTGRGIRPVGRF-NH2 [analog no. 5] | 266% | 1.46 nM | 758% | 0.65 nM
Myristoyl-SRAHQHS[Nle]ETRTPDINPAWYTGRGIRPVGR[1Nal]-NH2 [analog no. 11] | 292% | 1.33 nM | 124% | 3.96 nM

Now those with a lower Ki [1], led by results:

% of PrRP31 [1] | Ki [1] | % of PrRP31 [2] | Ki [2] | Binder
327% | 1.19 nM | 1260% | 0.39 nM | Lauroyl-SRAHQHS[Nle]ETRTPDINPAWYTGRGIRPVGRF-NH2 [analog no. 6]
505% | 0.77 nM | 850% | 0.58 nM | Palmitoyl-SRAHQHS[Nle]ETRTPDINPAWYTGRGIRPVGR[PheNO2]-NH2 [analog no. 18]
409% | 0.95 nM | 275% | 1.79 nM | Myristoyl-SRAHQHS[Nle]ETRTPDINPAWYTGRGIRPVGR[PheCl2]-NH2 [analog no. 14]
548% | 0.71 nM | 714% | 0.69 nM | Myristoyl-SRAHQHS[Nle]ETRTPDINPAWYTGRGIRPVGRF-NH2 [analog no. 7]
370% | 1.05 nM | 379% | 1.3 nM | Palmitoyl-SRAHQHS[Nle]ETRTPDINPAWYTGRGIRPVGR[PheCl2]-NH2 [analog no. 15]
